Laboratory results taken from the supplement of paper PMC9170038.

test system: MS2 coat protein; experiment: apparent KD of MS2 coat protein, switch OFF state (with FMN for OFF switches, without FMN for ON switches); designed switch direction (-1 OFF switch, 1 ON switch): -1; higher = weaker reporter binding; details: FMN input: 0 or 200 uM; Eterna round: R93 (includes R88 designs)
Procedure, shortened: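 SNAP-549-labelled MS2 coat protein was titrated onto designed RNA switches that had been transcribed on-chip from Illumina sequencing clusters. Amounts doubled from 0.7 or 1.5 nM to 3 µM in 100 mM Tris-HCl pH 7.5, 80 mM KCl, 4 mM MgCl2, with constant ligand or without. Apparent KD is the median per design of normalised cluster binding-curve fits.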

Q: How did the “apparent KD of MS2 coat protein” value turn out when “AGAAAGGCAGGAUAUACAUGAGGAUCACCCAUGUUAAGAAAGUGCGAAAGCACAAGAAGUAGAAGGGCCAAGAA [Rupert goes to college]” was run?
A: 19.2 nM

Q: Which “apparent KD of MS2 coat protein” value does the source give for “GAAAAAGGAGGAUAUACGAACAUGUCAAAAGACGUGAAGGGACAUGAGGAUCACCCAUGUAGAAGGCUUAAAAG [Mat - Exclusion 2 - JL mod - D94]” here?
A: 15.7 nM

Q: With “AAAGGACGAGGAUAUACAUGAGGAUCACCCAUGUAAAAAGCAUAAUAAAAUAACUUAUGUAGAAGGCGUCCAAA [Mat - Exclusion 3 - Eli mod - D91]” as the sequence, how does the “apparent KD of MS2 coat protein” value read?
A: 102 nM

Q: “GAAAAGUCAGGAUAUACAGAAAAAAAAACGAAAAAAAAUCUGUAGAAGGGACAUGAGGAUCACCCAUGUUAAAG [Mat - Exclusion 4 - Mayanna - D126]” was tested. Which “apparent KD of MS2 coat protein” value did it give?
A: 23.6 nM

Q: With “CUCAUGUCAGGAUAUGUCAAAAGUCACAAAAGUGACAAAAGACAGAAGGGACAUGAGGAUCACCCAUGUAAAAA [Starry Exclusion 4.6 (starryjess round 1 mod)]” as the sequence, how does the “apparent KD of MS2 coat protein” value read?
A: 15.5 nM

Q: With “AAAAAGUCAGGAUAUACAUGAGGAUCACCCAUGUAAAAAAAAGGGAAAAAAAAAAAGGGUAGAAGGGACGAAAA [Exclusion 3]” as the sequence, how does the “apparent KD of MS2 coat protein” value read?
A: 28.8 nM

Q: Which “apparent KD of MS2 coat protein” value does the source give for “AGUCAUACAGGAUAUACAUGAGGAUCACCCAUGUUUAUCCUAAAAGGGUGAUCCUCAUGUAGAAGGGUAUGACA [EX3 209: Super Stable 9]” here?
A: 14.5 nM

Q: Which “apparent KD of MS2 coat protein” value does the source give for “ACUGAUACAGGAUAUACGUGAGUGGAAAAAGUGUUUCCACUACAUGAGGAUCACCCAUGUAGAAGGGUAUCAGA [Ex2 Design 180: Random 6]” here?
A: 91.5 nM

Q: Which “apparent KD of MS2 coat protein” value does the source give for “AAAAAACAUGAGGAUCACCCAUGUGAGGAUAUGCAAAAGAAAAGAAAAGAAAGAAGAAGCAGAAGGUACAAGAA [Shepseskare Isi]” here?
A: 27.7 nM

Q: Which “apparent KD of MS2 coat protein” value does the source give for “AAGAACACAGGAUAUACAUGAGGAUCACCCAUGUAAAAGAAAGAAGGGAAAGAGAAAAGUAGAAGGGUGAAGAA [Ker]” here?
A: 36.6 nM

Q: “AACUGACAUGAGGAUCACCCAUGUCAGGAUAUGACAUCGAAAAAUAAAUAAAUCGUUGUCAGAAGGGACAUGGA [Design 74: Sub-opt RB]” was tested. Which “apparent KD of MS2 coat protein” value did it give?
A: 38 nM

Q: For “AAAUCAGUAGGAUAUACGAUUUUAUGCUAGAUAGAGGAACCACAUGAGGAUCACCCAUGUAGAAGGACUAGAUA [EX2 Malc#24]”, which “apparent KD of MS2 coat protein” value is on record?
A: 16.4 nM

Q: For “AAAAAACAUGAGGAUCACCCAUGUAAGGAUAUGCUGAAAAAAACCUGGAAAACAGGCAGCAGAAGGUACAAAAA [66%, Wbt, 36]”, which “apparent KD of MS2 coat protein” value is on record?
A: 35.6 nM

Q: “AGAAUACAUGAGGAUCACCCAUGUGAGGAUAUGCAAAUAAAAAUAAAAUAAAAUAAUUGCAGAAGGCACGAAAG [EX 1 May 23]” was tested. Which “apparent KD of MS2 coat protein” value did it give?
A: 91.2 nM

Q: “AAAAACAUAGGAUAUACAUGAGGAUCACCCAUGUUAAAAUAAAGAAAGGGAGAAAUAAGUAGAAGGAUGAAAAA [Meechl Ex3 3]” was tested. Which “apparent KD of MS2 coat protein” value did it give?
A: 31.2 nM

Q: “AAAAAGUGAGGAUAUGGAAAAAAAAAAAAAAAAAAAAAAAACCAGAAGGCACAUGAGGAUCACCCAUGUAAAAA [low kcal]” was tested. Which “apparent KD of MS2 coat protein” value did it give?
A: 30.9 nM

Q: Which “apparent KD of MS2 coat protein” value does the source give for “AGGAUGUCAGGAUAUGUGUAAAGAAUAAAAGAAAUAACAACACAGAAGGGACAUGAGGAUCACCCAUGUUAAAA [May 35]” here?
A: 44.3 nM

Q: How did the “apparent KD of MS2 coat protein” value turn out when “AAAAAGUCAGGAUAUAUGCGAAAAAUAAAAAAAAUAAAAGCAUAGAAGGGACAUGAGGAUCACCCAUGUUAAAA [Ex 4 May 16]” was run?
A: 26.6 nM

Q: For “AACAUACAUGAGGAUCACCCAUGUCAGGAUAUGCCGGGUUAGAAAAAAAAAAAAAAACGUAGAAGGGACAAAAA [Bilbo Confounded 3 - Jieux - Exclusion 1]”, which “apparent KD of MS2 coat protein” value is on record?
A: 62.2 nM

Q: “AAAAGCAAAGGAUAUACAUGAGGAUCACCCAUGUAAAAAAGAAAAGAGUAUAUGGCAUGUAGAAGGUUGCGUGG [Rabisoxe]” was tested. Which “apparent KD of MS2 coat protein” value did it give?
A: 54.9 nM

Q: “AAAAAACAUGAGGAUCACCCAUGUGAGGAUAUCGAAAAGUCAAAGAAAAAGACGAAAACGAGAAGGCACAAAAA [Mat - Mod of Eli 2]” was tested. Which “apparent KD of MS2 coat protein” value did it give?
A: 43.6 nM

Q: For “AGGAAACAUGAGGAUCACCCAUGUCAGGAUAUUUGAAAGAAAAGAAAAGAAAGAAGAAGAAGAAGGGACAAGAA [Narmer]”, which “apparent KD of MS2 coat protein” value is on record?
A: 31.1 nM

Q: How did the “apparent KD of MS2 coat protein” value turn out when “AAGAAUCGAGGAUAUACAUGAGGAUCACCCAUGUAAAAGAAAGAAGGGAAAGAGAAAAGUAGAAGGCGAAAGAA [Menkheperre Nekau I]” was run?
A: 27.7 nM

Q: For “AAAAAGGUAGGAUAUACGAAAAAAAAGGGUAGAAAAAUAAAACAUGAGGAUCACCCAUGUAGAAGGACCAAAAA [Ex 2 sub 1 70% 1]”, which “apparent KD of MS2 coat protein” value is on record?
A: 86.5 nM

Q: With “CUCAUGUAAGGAUAUGACUACAUAAAAAAAAAAAAAUGUAGUCAGAAGGUACAUGAGGAUCACCCAUGUACAAA [Brourd - Exclusion 4 - Sub 3]” as the sequence, how does the “apparent KD of MS2 coat protein” value read?
A: 25.2 nM

Q: “AAAACGUGAGGAUAUGCACCAAAAAAGGUAAAUCGGGUACGACAUGAGGAUCACCCAUGUAGAAGGCACGAAAA [Frodo Flailing 11 - Jieux - Exclusion 2]” was tested. Which “apparent KD of MS2 coat protein” value did it give?
A: 42.9 nM

Q: With “AAAAAGGGAGGAUAUACAUGAGGAUCACCCAUGUGAAAGACGAAAAAGAGUCUAAAAAGUAGAAGGCCCAAAAA [65%, Moding Exclusion3-cac2, 9]” as the sequence, how does the “apparent KD of MS2 coat protein” value read?
A: 43 nM

Q: How did the “apparent KD of MS2 coat protein” value turn out when “AAGAACAAAGGAUAUACAAGGAAGAAAGAAAAGAAAAGAAAACAUGAGGAUCACCCAUGUAGAAGGUUGUAGAA [EteRNA is fun!]” was run?
A: 20.7 nM

Q: How did the “apparent KD of MS2 coat protein” value turn out when “AAAAAGUCAGGAUAUGCAGACAAAGCAAAAAAGCAAUGUCUGCAGAAGGGACAUGAGGAUCACCCAUGUAAAAA [Ex 4 May 9]” was run?
A: 44.6 nM

Q: How did the “apparent KD of MS2 coat protein” value turn out when “AUGGUACAUGAGGAUCACCCAUGUCAGGAUAUCGGCUAAAACGUAAAAAAAAUAAAAGCGAGAAGGGACUGCUC [EX1 Malc#18 Mod 8 - Jieux - Exclusion 1]” was run?
A: 28.3 nM

Q: How did the “apparent KD of MS2 coat protein” value turn out when “AAGAAGUGAGGAUAUCGUUGUCGUCACAAAAGUGAUGACGACGAGAAGGCACAUGAGGAUCACCCAUGUAAAGA [Opal 28]” was run?
A: 43 nM

Q: “AACAGUACAGGAUAUACAUGAGGAUCACCCAUGUGAGAAUUAAGUGGAGGACCACAAAGUAGAAGGGUACUGAA [Mat - Exclusion 3 - JL mod - D9]” was tested. Which “apparent KD of MS2 coat protein” value did it give?
A: 109 nM

Q: Which “apparent KD of MS2 coat protein” value does the source give for “AAAAAACAUGAGGAUCACCCAUGUGAGGAUAUCGAUAUUAAAGACACCCACUUAAUGGCGAGAAGGCGCAAAAA [Brourd 613 Mod 20 - Jieux - Exclusion 1]” here?
A: 26.5 nM

Q: “CCUACGUGAGGAUAUGCGGAUAACACGUUAGACAAAUAGACGCAGAAGGCACAUGAGGAUCACCCAUGUGAACC [JR_Exc004_Sub317]” was tested. Which “apparent KD of MS2 coat protein” value did it give?
A: 17.6 nM

Q: Which “apparent KD of MS2 coat protein” value does the source give for “CAGAGACAUGAGGAUCACCCAUGUUAGGAUAUGCGUGUAUGCUAAAAAAAGUUAACAAGCAGAAGGAACAGAGG [JR_Exc001_Sub309]” here?
A: 64.2 nM

Q: “AAAAAACAUGAGGAUCACCCAUGUCAGGAUAUGCGAAGCAAAAAAAAAAAAAAGCGAAGCAGAAGGGACUAAAA [Exclusion1 Malc#5]” was tested. Which “apparent KD of MS2 coat protein” value did it give?
A: 32.9 nM

Q: With “AGGAAACAUGAGGAUCACCCAUGUGAGGAUAUGUAAAAGAAAAGAAAAGAAAGAAGAAACAGAAGGCACAAGAA [Nynetjer]” as the sequence, how does the “apparent KD of MS2 coat protein” value read?
A: 49.1 nM

Q: “AACAUGUAAGGAUAUUGAAGAAAAGAAAAGAAAGAAAAGAACAAGAAGGUACAUGAGGAUCACCCAUGUAAGAA [EteRNA is fun!]” was tested. Which “apparent KD of MS2 coat protein” value did it give?
A: 18.6 nM

Q: With “ACUAAUGAAGGAUAUACAAACAAAAAAAAAACAAAAAAAAAACAUGAGGAUCACCCAUGUAGAAGGUCAAAAAU [JR_Exc002_Sub1201]” as the sequence, how does the “apparent KD of MS2 coat protein” value read?
A: 20 nM

Q: “AAAAAGUGAGGAUAUUCGGAUAGGAAAACGAAAACCUAUCCGAAGAAGGCACAUGAGGAUCACCCAUGUGAAAG [Mat - Exaclusion 4 - Eli mod - D42]” was tested. Which “apparent KD of MS2 coat protein” value did it give?
A: 29.4 nM

Q: With “AAAAAGUGAGGAUAUGCGCUGUCAUGUAGACACGAGCAGUCGUAGAAGGCACAUGAGGAUCACCCAUGUUUAAA [EX4 Malc#24]” as the sequence, how does the “apparent KD of MS2 coat protein” value read?
A: 20 nM

Q: For “AAGAGUAGAGGAUAUAUAUGAAAAGAGUCGAAAGACUCAAAACAUGAGGAUCACCCAUGUAGAAGGCUACUCAA [Hyphema Seclusion mod]”, which “apparent KD of MS2 coat protein” value is on record?
A: 17.5 nM

Q: With “AGUGAGUGAGGAUAUUACUGAAGAAUAAAAGAAAUAACAAGUAAGAAGGCACAUGAGGAUCACCCAUGUACACA [May 61]” as the sequence, how does the “apparent KD of MS2 coat protein” value read?
A: 22 nM

Q: How did the “apparent KD of MS2 coat protein” value turn out when “GAAAAGUGAGGAUAUACAUGAGGAUCACCCAUGUGUAUAAAAAAUUACACAAAAGAAAGUAGAAGGCACUAAAA [Mat - Exclusion 3 - Mayanna mod - D114]” was run?
A: 28.1 nM
